± gives the uncertainty stated by the source.
Experiment: self-splicing fitness, log relative to wild type (ln ratio); higher = more splicing; Tetrahymena group I intron in knt gene, E. coli kanamycin selection, DiMSum; sequences stand for … in CUCUCU…GGAGGGAAAAGUUAUCAGGCAUGCACCUGGUAGCUAGUCUUUAAACCAAUAGAUUGCAUCGGUUUAAAAGGCAAGACCGUCAAAUUGCGGGAAAGGGGUCAACAGCCGUUCAGUACCAAGUCUCAGGGGAAACUUUGAGAUGGCCUUGCAAAGGGUAUGGUAAUAAGCUGACGGACAUGGUCCUAACCACGCAGCCAAGUCCUAAGUCAACAGAUCUUCUGUUGAUAUGGAUGCAGUUCACAGACUAAAUGUCGGUCGGGGAAGAUGUAUUCUUCUCAUAAGAUAUAGUCGGACCUCUCCUUAAUGGGAGCUAGCGGAUGAAGUGAUGCAACACUGGAGCCGCUGGGAACUAAUUUGUAUGCGAAAGUAUAUUGAUUAGUUUUGGAGUACUCGUGGUCG
Procedure, shortened: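 A randomised library covering all eight P1ex-region intron nucleotides was built with the intron in the knt kanamycin-resistance gene on pET-22b(+) and held in E. coli BL21(DE3). Cells were grown overnight at 37°C or 30°C on LB agar, with or without 25 μg/mL kanamycin, plus 100 μg/mL carbenicillin, 50 μM IPTG and 0.2% rhamnose, and pooled colonies were amplicon-sequenced on an Illumina HiSeq 2500. DiMSum fitness is the error-weighted combination of wild-type-normalised replicate fold changes, kanamycin versus none.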

| Sequence | self-splicing fitness (ln) (30 °C) | self-splicing fitness (ln) (37 °C) |
| --- | --- | --- |
| UCGCAGCAAUAUUACGGAUU | -3.46 ± 0.17 | -2.51 ± 0.18 |
| UCGCAGCAAUAUUACGGCGA | -3.35 ± 0.13 | -3 ± 0.17 |
| UCGCAGCAAUAUUACGGCGU | -2.06 ± 0.16 | 0.251 ± 0.11 |
| UCGCAGCAAUAUUACGGUAC | – | -2.21 ± 0.31 |
| UCGCAGCAAUAUUACGUAUC | -3.82 ± 0.37 | -2.15 ± 0.27 |
| UCGCAGCAAUAUUACGUCAA | -2.69 ± 0.15 | -0.094 ± 0.11 |
| UCGCAGCAAUAUUACGUCGC | -3.2 ± 0.37 | – |
| UCGCAGCAAUAUUACGUCGG | -2.74 ± 0.18 | -1.79 ± 0.19 |
| UCGCAGCAAUAUUACGUCUA | -0.18 ± 0.11 | 0.716 ± 0.12 |
| UCGCAGCAAUAUUACGUGGA | -1.93 ± 0.11 | -1.57 ± 0.084 |
| UCGCAGCAAUAUUACGUGUA | -1.19 ± 0.082 | -0.901 ± 0.083 |
| UCGCAGCAAUAUUACGUUUU | -4.52 ± 0.36 | -2.9 ± 0.23 |
| UCGGAGCAAUAUUACGAAGG | -2.58 ± 0.45 | – |
| UCGGAGCAAUAUUACGACGA | -1.41 ± 0.14 | -1.32 ± 0.16 |
| UCGGAGCAAUAUUACGAGCA | -2.39 ± 0.23 | -1.51 ± 0.27 |
| UCGGAGCAAUAUUACGAUGG | -3.2 ± 0.22 | -2.1 ± 0.25 |
| UCGGAGCAAUAUUACGCGUG | 0.284 ± 0.17 | -0.281 ± 0.17 |
| UCGGAGCAAUAUUACGCUAG | -1.87 ± 0.21 | -2.38 ± 0.27 |
| UCGGAGCAAUAUUACGGCCA | -3.25 ± 0.44 | -1.63 ± 0.35 |
| UCGGAGCAAUAUUACGGCUC | -1.81 ± 0.29 | – |
| UCGGAGCAAUAUUACGGUUG | -3.25 ± 0.24 | -2.48 ± 0.33 |
| UCGGAGCAAUAUUACGUACG | -1.21 ± 0.14 | -0.867 ± 0.18 |
| UCGGAGCAAUAUUACGUCUA | -2.52 ± 0.14 | -1.89 ± 0.14 |
| UCGGAGCAAUAUUACGUGUC | – | -2.26 ± 0.29 |
| UCGGAGCAAUAUUACGUGUG | -3.08 ± 0.18 | -1.63 ± 0.1 |
| UCGGAGCAAUAUUACGUUCU | -3.17 ± 0.2 | -1.41 ± 0.4 |

| Sequence | self-splicing fitness (ln) (30 °C) | self-splicing fitness (ln) (37 °C) |
| --- | --- | --- |
| UCGUAGCAAUAUUACGAAAC | – | -2.91 ± 0.38 |
| UCGUAGCAAUAUUACGAACG | -2.5 ± 0.21 | -1.94 ± 0.23 |
| UCGUAGCAAUAUUACGAAGA | -3.36 ± 0.5 | – |
| UCGUAGCAAUAUUACGAAUA | – | -2.55 ± 0.27 |
| UCGUAGCAAUAUUACGACGU | -3.04 ± 0.28 | -1.58 ± 0.17 |
| UCGUAGCAAUAUUACGAGGC | -0.464 ± 0.44 | – |
| UCGUAGCAAUAUUACGAGUC | -3.23 ± 0.17 | -2.47 ± 0.17 |
| UCGUAGCAAUAUUACGAUCC | -2.46 ± 0.35 | – |
| UCGUAGCAAUAUUACGCGGA | -2.54 ± 0.17 | -1.4 ± 0.12 |
| UCGUAGCAAUAUUACGCUCC | -2.47 ± 0.25 | – |
| UCGUAGCAAUAUUACGCUGU | – | -1.67 ± 0.28 |
| UCGUAGCAAUAUUACGGAAG | -2.55 ± 0.29 | -1.94 ± 0.28 |
| UCGUAGCAAUAUUACGGGAC | – | -2.5 ± 0.44 |
| UCGUAGCAAUAUUACGGGAU | -4.41 ± 0.46 | -1.99 ± 0.31 |
| UCGUAGCAAUAUUACGGUCG | -1.69 ± 0.12 | 0.265 ± 0.13 |
| UCGUAGCAAUAUUACGGUCU | -2.83 ± 0.18 | -1.67 ± 0.16 |
| UCGUAGCAAUAUUACGUAAA | -2.09 ± 0.2 | -0.594 ± 0.17 |
| UCGUAGCAAUAUUACGUCUG | -0.251 ± 0.091 | -0.589 ± 0.12 |
| UCGUAGCAAUAUUACGUGCC | -3.73 ± 0.33 | -1.13 ± 0.25 |
| UCGUAGCAAUAUUACGUUCG | -1.45 ± 0.071 | -0.735 ± 0.086 |
| UCGUAGCAAUAUUACGUUCU | -1.6 ± 0.23 | -1.49 ± 0.24 |
| UCUAAGCAAUAUUACGAAGG | -2.53 ± 0.15 | -0.99 ± 0.16 |
| UCUAAGCAAUAUUACGAAUU | -3.75 ± 0.31 | -2.66 ± 0.25 |
| UCUAAGCAAUAUUACGACAU | -3.444 ± 0.025 | -2.23 ± 0.037 |
| UCUAAGCAAUAUUACGAGAU | – | -0.699 ± 0.22 |
| UCUAAGCAAUAUUACGAUGU | -0.365 ± 0.06 | -0.355 ± 0.074 |

| Sequence | self-splicing fitness (ln) (30 °C) | self-splicing fitness (ln) (37 °C) |
| --- | --- | --- |
| UCUAAGCAAUAUUACGCACU | -3.04 ± 0.24 | -1.52 ± 0.17 |
| UCUAAGCAAUAUUACGCAUC | -2.99 ± 0.13 | -3.33 ± 0.23 |
| UCUAAGCAAUAUUACGCUGC | -3.41 ± 0.19 | -2.84 ± 0.19 |
| UCUAAGCAAUAUUACGCUUG | – | -2.59 ± 0.41 |
| UCUAAGCAAUAUUACGGCAU | -3.46 ± 0.26 | -2.55 ± 0.21 |
| UCUAAGCAAUAUUACGGGCG | -1.54 ± 0.11 | -0.979 ± 0.095 |
| UCUAAGCAAUAUUACGGGGU | -2.9 ± 0.26 | -2.45 ± 0.21 |
| UCUAAGCAAUAUUACGGUGC | -2.58 ± 0.12 | -2.85 ± 0.2 |
| UCUAAGCAAUAUUACGGUUG | -2.82 ± 0.15 | -2.61 ± 0.18 |
| UCUAAGCAAUAUUACGUAAC | -4.19 ± 0.24 | -2.94 ± 0.24 |
| UCUAAGCAAUAUUACGUCUC | – | -3.38 ± 0.4 |
| UCUAAGCAAUAUUACGUUGA | -1.71 ± 0.089 | -1.29 ± 0.086 |
| UCUAAGCAAUAUUACGUUUU | -3.43 ± 0.19 | -3.06 ± 0.29 |
| UCUCAGCAAUAUUACGAACC | -1.84 ± 0.18 | -1.69 ± 0.28 |
| UCUCAGCAAUAUUACGACAC | -4.22 ± 0.26 | -3.33 ± 0.33 |
| UCUCAGCAAUAUUACGAUGU | -1.07 ± 0.09 | -0.224 ± 0.12 |
| UCUCAGCAAUAUUACGCAGU | -2.93 ± 0.16 | -1.96 ± 0.19 |
| UCUCAGCAAUAUUACGCGAU | -4.5 ± 0.34 | -2.1 ± 0.36 |
| UCUCAGCAAUAUUACGCGGA | -2.54 ± 0.37 | -2.46 ± 0.29 |
| UCUCAGCAAUAUUACGGAGG | -4.93 ± 0.29 | -1.97 ± 0.17 |
| UCUCAGCAAUAUUACGGCGU | -0.533 ± 0.087 | -0.636 ± 0.12 |
| UCUCAGCAAUAUUACGUAGG | -0.566 ± 0.053 | -0.133 ± 0.1 |
| UCUCAGCAAUAUUACGUCAG | -3.54 ± 0.25 | -3.16 ± 0.27 |
| UCUGAGCAAUAUUACGAAAU | -4.41 ± 0.46 | -2.24 ± 0.4 |
| UCUGAGCAAUAUUACGAAGA | -1.67 ± 0.21 | -0.838 ± 0.27 |
| UCUGAGCAAUAUUACGAUGU | -2.72 ± 0.15 | -0.718 ± 0.16 |

| Sequence | self-splicing fitness (ln) (30 °C) | self-splicing fitness (ln) (37 °C) |
| --- | --- | --- |
| UCUGAGCAAUAUUACGAUUG | -2.97 ± 0.27 | -2.39 ± 0.33 |
| UCUGAGCAAUAUUACGCACU | -4.18 ± 0.39 | -2.1 ± 0.28 |
| UCUGAGCAAUAUUACGCGAC | – | -2.85 ± 0.48 |
| UCUGAGCAAUAUUACGCGCG | – | -1.69 ± 0.46 |
| UCUGAGCAAUAUUACGCGUC | – | -2.49 ± 0.48 |
| UCUGAGCAAUAUUACGCUUA | -2.24 ± 0.26 | -2.38 ± 0.45 |
| UCUGAGCAAUAUUACGGGCA | -3.41 ± 0.33 | -2.49 ± 0.16 |
| UCUGAGCAAUAUUACGGGGG | -3.29 ± 0.36 | -2.49 ± 0.25 |
| UCUGAGCAAUAUUACGGUAG | -3.93 ± 0.33 | -1.67 ± 0.18 |
| UCUGAGCAAUAUUACGGUGG | -1.29 ± 0.084 | -0.277 ± 0.1 |
| UCUGAGCAAUAUUACGUCCA | -2.33 ± 0.3 | -1.68 ± 0.38 |
| UCUUAGCAAUAUUACGAACG | -0.815 ± 0.15 | -1 ± 0.2 |
| UCUUAGCAAUAUUACGAGCU | -3.09 ± 0.34 | -1.01 ± 0.26 |
| UCUUAGCAAUAUUACGAUCA | -1.3 ± 0.22 | -1.15 ± 0.23 |
| UCUUAGCAAUAUUACGCAUU | -4.23 ± 0.19 | -2.47 ± 0.16 |
| UCUUAGCAAUAUUACGCGCC | -3.51 ± 0.22 | -2.42 ± 0.22 |
| UCUUAGCAAUAUUACGCGCG | -3.05 ± 0.25 | -1.76 ± 0.17 |
| UCUUAGCAAUAUUACGCGGA | – | -2.03 ± 0.41 |
| UCUUAGCAAUAUUACGCGGG | -2.21 ± 0.22 | -2.5 ± 0.34 |
| UCUUAGCAAUAUUACGCUAA | -2.71 ± 0.35 | – |
| UCUUAGCAAUAUUACGCUGU | -3.65 ± 0.37 | -1.45 ± 0.26 |
| UCUUAGCAAUAUUACGGAUC | – | -1.69 ± 0.36 |
| UCUUAGCAAUAUUACGGGUC | -3.28 ± 0.32 | -2.68 ± 0.41 |
| UCUUAGCAAUAUUACGGUGC | -3.26 ± 0.33 | -1.9 ± 0.33 |

Source: the supplement of paper PMC7877785
